# Test results: article PMC9654539, “Alkaline Stress Causes Changes in Polyamine Biosynthesis in Thermus thermophilus” (International Journal of Molecular Sciences, 2022)
# B1: TtSpeB (aminopropylagmatine ureohydrolase) (Thermus thermophilus HB8) (protein)
# chain: MRLVFGEKDTPYEEARVVVLPVPYDLSLSFLPGARRGPEAILLASRELEPFLLELGAAPEEVGIHAAEPVPWVAGMAEESHRLIREEALRHLRAGKWVVALGGDHSVTHPLVQAHREALGDFSLLHVDAHADLYPEWQGSVYSHASPFYRLLTEGFPLVQVGIRAMDRDSLRLARKKGVALFPAHRIHREGLPLDEILRALGKRVYISLDFDALDPSLMPSVGTPLPGGLSYRQVVDLLEAVFREKEVVGMDFVELSPNGQFHAEMTAAQLVYHAIGLKGLQAGWLSREVDHI
# notes: gene amplified from HB8 genomic DNA, pET21b (pET21speBHis, NdeI/HindIII), His-tagged, tag not reported cut, E. coli BL21(DE3), heat step 70 °C, Ni-NTA
# Substrate: N=C(N)NCCCCN
# Experiment: purified protein
# Assay type: biochemical, Thermus thermophilus
# Details: pH 10.0, 75 °C, 50 mM Tris-HCl, 10 μM MnCl2, 0.005–1 mM agmatine
protein,measurement,value
B1,Km,171 µM
